The labels stand for the following.
B2: adaptor protein FADD (other, UniProt Q13158 1-208, looked up)
chain: MDPFLVLLHSVSSSLSSSELTELKFLCLGRVGKRKLERVQSGLDLFSMLLEQNDLEPGHTELLRELLASLRRHDLLRRVDDFEAGAAAGAAPGEEDLCAAFNVICDNVGKDWRRLARQLKVSDTKIDSIEDRYPRNLTERVRESLRIWKNTEKENATVAHLVGALRSCQMNLVADLVQEVQQARDLQNRSGAMSPMSWNSDASTSEAS
notes: Detected with an anti-human FADD mAb (clone 1); also called Fas-associated death domain protein

The target in assay [1] is serum CD95L of SLE patients (soluble, homotrimeric) (human) (UniProt P48023). Briefly: cell-based or functional assay.
serum CD95L of SLE patients (soluble, homotrimeric) (human), sequence (P48023 130-281 limits assumed): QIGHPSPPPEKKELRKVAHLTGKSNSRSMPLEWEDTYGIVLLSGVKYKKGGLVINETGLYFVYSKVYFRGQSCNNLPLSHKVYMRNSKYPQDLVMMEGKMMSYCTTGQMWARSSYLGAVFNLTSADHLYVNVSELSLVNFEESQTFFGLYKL
In another assay the target is T1, GFP-fused CD95^1-210 (human, UniProt P25445 17-226).
T1 construct: also called CD95 construct devoid of DD; not shown: GFP of vector pEGFP-N1 (Clontech), fused C-terminally
T1 sequence: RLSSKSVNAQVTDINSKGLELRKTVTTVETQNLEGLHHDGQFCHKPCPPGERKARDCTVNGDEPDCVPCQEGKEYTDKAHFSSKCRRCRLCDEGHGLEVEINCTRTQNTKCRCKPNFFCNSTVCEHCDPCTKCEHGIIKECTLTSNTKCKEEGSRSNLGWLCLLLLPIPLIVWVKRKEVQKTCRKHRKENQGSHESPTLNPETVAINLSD
Briefly: co-immunoprecipitation with CD95 from transfected HEK cells stimulated with CD95L, immunoblot. (In general: A western blot detects proteins with antibodies after separation by electrophoresis.)

The assay “adaptor protein FADD” addresses B2. The description is as above.
Procedure: (§1) The immune complex was resolved by SDS-PAGE, and the indicated immunoblotting was performed. Total lysates were loaded as a control. […] The immune complex was resolved by SDS/PAGE, and the indicated immunoblottings were performed. Total lysates were loaded as a control. […] The immune complex was resolved by SDS-PAGE, and the indicated immunoblotting was performed. Total lysates were loaded as a control. […] The immune complex was resolved by SDS-PAGE, and the indicated immunoblotting was performed. Total lysates were loaded as a control. E. Jurkat and CEM were loaded with FuraPE3-AM (1 μM), pretreated for 1 h with 10 μM of TAT-control or TAT-CID and then stimulated with 100 ng/ml of cl-CD95L (black arrow). Ratio images were taken every 10 s and were normalized vs pre-stimulated values. F. Human PBLs from healthy donors were loaded with furaPE3-AM (1 μM) pretreated for 1 h with 10 μM of TAT-control or TAT-CID or with the IP3R inhibitor Xestospongin C (positive control, 1 μM, 1 h) and then stimulated with 100 ng/ml of cl-CD95L (black arrow). Ratio values (R) were normalized vs pre-stimulated values (R0). Data represent mean±SD of R/R₀ measured in n cells.
The target of assay [2] is T2, Myc-tagged full-length human PLCγ1 (human, UniProt P19174 1-1290).
T2 construct: Transfected into HEK cells; also called wild type PLCγ1; phospholipase Cγ1; not shown: Myc tag of the pTriEx-4 construct
T2 sequence (looked up): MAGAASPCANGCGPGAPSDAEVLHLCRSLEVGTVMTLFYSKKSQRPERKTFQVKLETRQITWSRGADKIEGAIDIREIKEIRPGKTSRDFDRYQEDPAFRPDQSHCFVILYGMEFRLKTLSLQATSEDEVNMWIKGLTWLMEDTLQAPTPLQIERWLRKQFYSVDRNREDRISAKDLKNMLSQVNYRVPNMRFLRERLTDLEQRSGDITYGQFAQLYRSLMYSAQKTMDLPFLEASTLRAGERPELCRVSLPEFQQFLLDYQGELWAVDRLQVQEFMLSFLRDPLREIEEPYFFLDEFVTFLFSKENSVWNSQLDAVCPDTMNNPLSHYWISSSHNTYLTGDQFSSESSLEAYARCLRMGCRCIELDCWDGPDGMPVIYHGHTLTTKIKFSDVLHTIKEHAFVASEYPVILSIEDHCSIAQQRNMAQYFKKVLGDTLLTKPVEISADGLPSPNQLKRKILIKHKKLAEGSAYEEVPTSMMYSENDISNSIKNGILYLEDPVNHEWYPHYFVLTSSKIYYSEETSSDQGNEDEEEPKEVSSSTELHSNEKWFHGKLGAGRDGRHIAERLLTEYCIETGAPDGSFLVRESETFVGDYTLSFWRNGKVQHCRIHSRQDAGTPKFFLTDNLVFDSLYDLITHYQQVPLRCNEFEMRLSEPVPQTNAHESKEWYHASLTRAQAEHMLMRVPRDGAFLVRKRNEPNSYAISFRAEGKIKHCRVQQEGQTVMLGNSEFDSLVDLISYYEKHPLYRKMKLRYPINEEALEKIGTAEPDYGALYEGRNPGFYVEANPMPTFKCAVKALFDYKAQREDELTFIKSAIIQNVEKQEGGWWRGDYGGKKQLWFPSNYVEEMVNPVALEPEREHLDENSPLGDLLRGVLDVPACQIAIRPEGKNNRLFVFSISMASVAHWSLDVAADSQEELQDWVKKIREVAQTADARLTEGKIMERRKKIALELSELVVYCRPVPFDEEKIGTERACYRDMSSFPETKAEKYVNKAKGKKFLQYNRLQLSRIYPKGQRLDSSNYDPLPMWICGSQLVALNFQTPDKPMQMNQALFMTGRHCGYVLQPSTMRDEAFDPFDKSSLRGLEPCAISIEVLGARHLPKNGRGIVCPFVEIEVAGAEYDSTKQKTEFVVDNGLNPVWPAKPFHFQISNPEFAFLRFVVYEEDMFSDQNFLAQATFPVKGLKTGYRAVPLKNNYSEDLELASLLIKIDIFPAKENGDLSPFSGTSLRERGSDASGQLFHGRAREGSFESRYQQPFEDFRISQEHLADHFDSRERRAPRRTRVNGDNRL
The description is as above.

For assay [3], the target named is T2, Myc-tagged full-length human PLCγ1. The assay is described as follows: PLCγ1 immunoprecipitation from HEK cells co-transfected with PLCγ1 and CID-mCherry, immunoblot.
Procedure: as §1

Ends that are not written are not given here.

Procedure for GFP-fused CD95^1-210: as §1

B1: neutralizing anti-CD95L mAb (Nok1) (antibody, from another filing, V domains shown)
VH: VQLQESGPELVKPGASVKISCKASGYAFSSSWMNWVKQRPGKGLEWIGRIYPGDGDTNDNGKFKGKATLTADKSSSTAYMQLSSLTSEDSAVYFCARSYYYDGSPWFTYWGQGTTVTVSS
VL: DIQMTQSPSSLSASLGDRVTISCRASQDISNYLNWYQQKPDGTVKLLIYYTSRLHSGVPSRFSGSGSGTDYSLTISNLEPEDIATYFCQQYSEFPWTFGGGTKLEIKR
With B1, the T-cell transmigration induced by fractions 76-78 in assay [1] is less than 50%.
B2: the binding result in the assay with GFP-fused CD95^1-210 was “no binding”.

B3: GFP-fused CD95^1-175 (receptor)
chain: RLSSKSVNAQVTDINSKGLELRKTVTTVETQNLEGLHHDGQFCHKPCPPGERKARDCTVNGDEPDCVPCQEGKEYTDKAHFSSKCRRCRLCDEGHGLEVEINCTRTQNTKCRCKPNFFCNSTVCEHCDPCTKCEHGIIKECTLTSNTKCKEEGSRSNLGWLCLLLLPIPLIVWVK
notes: also called CD95 devoid of the entire intracellular domain; not shown: GFP of vector pEGFP-N1 (Clontech), fused C-terminally
For B3, the binding result (with adaptor protein FADD; in assay [2]) was “no binding” throughout.

B4: CD95^(175-210)-mCherry (other)
chain: KRKEVQKTCRKHRKENQGSHESPTLNPETVAINLSD-mCherry
modifications: also: mCherry fused C-terminally, junction not given here
notes: Expressed in HEK cells together with PLCγ1; also called CID-mCherry; CID-mCHERRY; not shown: mCherry of vector pmCHERRY-N1, fused C-terminally
Regarding B4, in assay [3], the binding result is recorded as “binds”.

The values are drawn from patent US20170044234A1 (INSERM INSTITUT NATIONAL DE LA SANTE ET DE LA RECHERCHE …, published 2017).
